Test results taken from patent US20220048967A1 (published 2022).
Numbered stars: 1 amine (or outer) side, 2 acyl side, 3 side chain; on linkers, the order of the positions; unused ones are H or OH. Square brackets hold non-standard residues; d marks the D form. Side chains are listed from the residue outwards. Ends that are not written are not given here. * marks the point of attachment. C20 diacid = O=C(O)CCCCCCCCCCCCCCCCCCC(=O)*; γGlu = O=C(O)[C@H](CCC(=O)[*:2])N[*:1]; αMeL = CC(C)C[C@](C)(N)C(=O)O; Dab = NCC[C@H](N)C(=O)O; Dap = NC[C@H](N)C(=O)O; AEEA = NCCOCCOCC(=O)O; Aib = CC(C)(N)C(=O)O

T1: human gastric inhibitory peptide receptor (GIPR) (human, UniProt P48546 22-466)
T1 sequence (looked up): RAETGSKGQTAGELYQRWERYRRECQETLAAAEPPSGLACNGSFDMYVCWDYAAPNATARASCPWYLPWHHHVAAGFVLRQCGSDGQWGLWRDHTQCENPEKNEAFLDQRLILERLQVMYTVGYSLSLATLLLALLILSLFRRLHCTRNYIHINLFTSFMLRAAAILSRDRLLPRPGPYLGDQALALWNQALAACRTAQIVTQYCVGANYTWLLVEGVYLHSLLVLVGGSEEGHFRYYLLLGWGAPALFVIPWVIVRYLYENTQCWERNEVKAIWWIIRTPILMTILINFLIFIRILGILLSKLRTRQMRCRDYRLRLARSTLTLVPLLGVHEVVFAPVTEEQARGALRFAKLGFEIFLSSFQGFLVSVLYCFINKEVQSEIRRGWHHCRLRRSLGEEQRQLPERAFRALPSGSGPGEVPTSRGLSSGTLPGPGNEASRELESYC

T2: human GIP receptor (human, UniProt P48546 22-466)
T2 sequence (looked up): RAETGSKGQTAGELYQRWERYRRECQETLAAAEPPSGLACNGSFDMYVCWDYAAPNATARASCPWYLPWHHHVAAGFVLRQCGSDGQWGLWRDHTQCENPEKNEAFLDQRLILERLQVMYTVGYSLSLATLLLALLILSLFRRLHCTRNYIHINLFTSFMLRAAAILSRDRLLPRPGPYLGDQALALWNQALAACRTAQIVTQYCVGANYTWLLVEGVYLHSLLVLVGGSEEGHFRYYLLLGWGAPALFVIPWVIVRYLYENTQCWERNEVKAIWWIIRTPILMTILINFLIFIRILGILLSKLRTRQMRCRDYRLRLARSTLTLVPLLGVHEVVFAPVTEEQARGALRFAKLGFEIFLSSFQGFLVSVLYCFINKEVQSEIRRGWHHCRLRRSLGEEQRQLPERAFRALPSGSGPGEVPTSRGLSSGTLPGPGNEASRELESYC


Key:
Assay in all cases: cell-based or functional assay
[1] = molecular target: T1, human gastric inhibitory peptide …
[2] = molecular target: human GLP-1 receptor (GLP-1R) (human, UniProt P43220 24-463)
human GLP-1 receptor = human GLP-1 receptor (human, UniProt P43220 24-463)
human GIP receptor = molecular target: T2, human GIP receptor

Binder	hGIPR cAMP EC50 ratio [1]	hGIPR cAMP Rel EC50 [1] [nM]	hGLP1R cAMP EC50 ratio [2]	hGLP1R cAMP Rel EC50 [2] [nM]	hGLP1R cAMP Rel EC50 (human GLP-1 receptor) [nM]	hGLP1R cAMP EC50 ratio (human GLP-1 receptor)	hGIPR cAMP EC50 ratio (human GIP receptor)	hGIPR cAMP Rel EC50 (human GIP receptor) [nM]
XXEGTFTSDYSIXLDKKAQXAFIXYLIAGGPSSGAPPPS (D-Tyr1, Aib2, αMeL13, (2-[2-(2-Amino-ethoxy)-ethoxy]-acetyl)2-(γ-Glu)-CO-(CH2)18-CO2H on K17, Aib20, D-Glu24, C-terminal NH2) [Example 352]	0.815	0.127	0.201	0.142				
XXEGTFTSDYSIXLDXKAQXEFIXYLIAGGPSSGAPPPS (D-Tyr1, Aib2, αMeL13, Orn16, (2-[2-(2-Amino-ethoxy)-ethoxy]-acetyl)2-(γ-Glu)-CO-(CH2)18-CO2H on K17, Aib20, D-Glu24, C-terminal NH2) [Example 354]	0.441	0.233	0.0517	0.54				
XXEGTFTSDYSIXLDXKAQXAFVEYLIAGGPSSGAPPPS (D-Tyr1, Aib2, αMeL13, Orn16, (2-[2-(2-Amino-ethoxy)-ethoxy]-acetyl)2-(γ-Glu)-CO-(CH2)18-CO2H on K17, Aib20, C-terminal NH2) [Example 358]	0.662	0.183	0.26	0.117				
XXEGTFTSDYSIXLDXKAQXAFIXYLIEGGPSSGAPPPS (D-Tyr1, Aib2, αMeL13, Orn16, (2-[2-(2-Amino-ethoxy)-ethoxy]-acetyl)2-(γ-Glu)-CO-(CH2)18-CO2H on K17, Aib20, D-Glu24, C-terminal NH2) [Example 357]	0.366	0.384	0.181	0.181				
YXEGTFTSDYSILLDKKAQXAFIEYLIEGGPSSGAPPPS (Aib2; K17((2-[2-(2-Amino-ethoxy)-ethoxy]-acetyl)-(ϵK)-(ϵK)-CO-(CH2)18-CO2H); Aib20; C-terminal NH2) [Example 114]					0.267			
YXEGTFTSDYSILLDKKAQXAFIEYLIEGGPSSGAPPPS (Aib2; K17((2-[2-(2-Amino-ethoxy)-ethoxy]-acetyl)-AOC-(γ-Glu)-CO-(CH2)18-CO2H); Aib20; C-terminal NH2) [Example 108]					0.294			
YXEGTFTSDYSILLDKKAQXAFIEYLIEGGPSSGAPPPS (Aib2; K17((2-[2-(2-Amino-ethoxy)-ethoxy]-acetyl)-(Trx)-(γ-Glu)-CO-(CH2)18-CO2H); Aib20; C-terminal NH2) [Example 111]					0.308			
YXEGTFTSDYSILLDKKAQXAFIEYLIEGGPSSGAPPPS (αMePro2; K17((2-[2-(2-Amino-ethoxy)-ethoxy]-acetyl)2-(γ-Glu)-CO-(CH2)18-CO2H); Aib20; C-terminal NH2) [Example 87]					0.0801			
XXEGTFTSDYSIXLDKKAQXEFIXYLIEGGPSSGAPPPS (D-Tyr1, Aib2, αMeL13, (2-[2-(2-Amino-ethoxy)-ethoxy]-acetyl)2-(γ-Glu)-CO-(CH2)18-CO2H on K17, Aib20, D-Glu24, C-terminal NH2) [Example 353]	0.145	0.497	0.0231	1.09				
XXEGTFTSDYSIXLDKKAQXAFIXYLIEGGPSSGAPPPS (D-Tyr1, Aib2, αMeL13, (2-[2-(2-Amino-ethoxy)-ethoxy]-acetyl)2-(γ-Glu)-CO-(CH2)18-CO2H on K17, Aib20, D-Glu24, C-terminal NH2) [Example 356]	0.364	0.386	0.0647	0.506				
XXEGTFTSDYSIXLDXKAQXEFIXYLIEGGPSSGAPPPS (D-Tyr1, Aib2, αMeL13, Orn16, (2-[2-(2-Amino-ethoxy)-ethoxy]-acetyl)2-(γ-Glu)-CO-(CH2)18-CO2H on K17, Aib20, D-Glu24, C-terminal NH2) [Example 355]	0.111	0.685	0.0285	0.896				
Y[Aib]EGTFTSDYK([AEEA-AEEA-γGlu-C20 diacid])ILLDKIAQ[Aib]AFIEYLIEGGPSSGAPPPS-NH2 (N-terminus assumed; SMILES CC[C@H](C)[C@H](NC(=O)[C@H](CCCCN)NC(=O)[C@H](CC(=O)O)NC(=O)[C@H](CC(C)C)NC(=O)[C@H](CC(C)C)NC(=O)[C@@H](NC(=O)[C@H](CCCCNC(=O)COCCOCCNC(=O)COCCOCCNC(=O)CC[C@H](NC(=O)CCCCCCCCCCCCCCCCCCC(=O)O)C(=O)O)NC(=O)[C@H](Cc1ccc(O)cc1)NC(=O)[C@H](CC(=O)O)NC(=O)[C@H](CO)NC(=O)[C@@H](NC(=O)[C@H](Cc1ccccc1)NC(=O)[C@@H](NC(=O)CNC(=O)[C@H](CCC(=O)O)NC(=O)C(C)(C)NC(=O)[C@@H](N)Cc1ccc(O)cc1)[C@@H](C)O)[C@@H](C)O)[C@@H](C)CC)C(=O)N[C@@H](C)C(=O)N[C@@H](CCC(N)=O)C(=O)NC(C)(C)C(=O)N[C@@H](C)C(=O)N[C@@H](Cc1ccccc1)C(=O)N[C@H](C(=O)N[C@@H](CCC(=O)O)C(=O)N[C@@H](Cc1ccc(O)cc1)C(=O)N[C@@H](CC(C)C)C(=O)N[C@H](C(=O)N[C@@H](CCC(=O)O)C(=O)NCC(=O)NCC(=O)N1CCC[C@H]1C(=O)N[C@@H](CO)C(=O)N[C@@H](CO)C(=O)NCC(=O)N[C@@H](C)C(=O)N1CCC[C@H]1C(=O)N1CCC[C@H]1C(=O)N1CCC[C@H]1C(=O)N[C@@H](CO)C(N)=O)[C@@H](C)CC)[C@@H](C)CC) [Example 24]					13	0.00416	0.228	0.762
Y[Aib]EGTFTSDK([AEEA-AEEA-γGlu-C20 diacid])SILLDKIAQ[Aib]AFIEYLIEGGPSSGAPPPS-NH2 (N-terminus assumed; SMILES CC[C@H](C)[C@H](NC(=O)[C@H](CCCCN)NC(=O)[C@H](CC(=O)O)NC(=O)[C@H](CC(C)C)NC(=O)[C@H](CC(C)C)NC(=O)[C@@H](NC(=O)[C@H](CO)NC(=O)[C@H](CCCCNC(=O)COCCOCCNC(=O)COCCOCCNC(=O)CC[C@H](NC(=O)CCCCCCCCCCCCCCCCCCC(=O)O)C(=O)O)NC(=O)[C@H](CC(=O)O)NC(=O)[C@H](CO)NC(=O)[C@@H](NC(=O)[C@H](Cc1ccccc1)NC(=O)[C@@H](NC(=O)CNC(=O)[C@H](CCC(=O)O)NC(=O)C(C)(C)NC(=O)[C@@H](N)Cc1ccc(O)cc1)[C@@H](C)O)[C@@H](C)O)[C@@H](C)CC)C(=O)N[C@@H](C)C(=O)N[C@@H](CCC(N)=O)C(=O)NC(C)(C)C(=O)N[C@@H](C)C(=O)N[C@@H](Cc1ccccc1)C(=O)N[C@H](C(=O)N[C@@H](CCC(=O)O)C(=O)N[C@@H](Cc1ccc(O)cc1)C(=O)N[C@@H](CC(C)C)C(=O)N[C@H](C(=O)N[C@@H](CCC(=O)O)C(=O)NCC(=O)NCC(=O)N1CCC[C@H]1C(=O)N[C@@H](CO)C(=O)N[C@@H](CO)C(=O)NCC(=O)N[C@@H](C)C(=O)N1CCC[C@H]1C(=O)N1CCC[C@H]1C(=O)N1CCC[C@H]1C(=O)N[C@@H](CO)C(N)=O)[C@@H](C)CC)[C@@H](C)CC) [Example 23]					0.19	0.342	0.754	0.204
[dY][Aib]EGTFTSDYSI[αMeL]LD[Dap]K([AEEA-AEEA-γGlu-C20 diacid])AQ[Aib]EFIEYLIAGGPSSGAPPPS-NH2 (N-terminus assumed; SMILES CC[C@H](C)[C@H](NC(=O)[C@H](CC(C)C)NC(=O)[C@H](Cc1ccc(O)cc1)NC(=O)[C@H](CCC(=O)O)NC(=O)[C@@H](NC(=O)[C@H](Cc1ccccc1)NC(=O)[C@H](CCC(=O)O)NC(=O)C(C)(C)NC(=O)[C@H](CCC(N)=O)NC(=O)[C@H](C)NC(=O)[C@H](CCCCNC(=O)COCCOCCNC(=O)COCCOCCNC(=O)CC[C@H](NC(=O)CCCCCCCCCCCCCCCCCCC(=O)O)C(=O)O)NC(=O)[C@H](CN)NC(=O)[C@H](CC(=O)O)NC(=O)[C@H](CC(C)C)NC(=O)[C@](C)(CC(C)C)NC(=O)[C@@H](NC(=O)[C@H](CO)NC(=O)[C@H](Cc1ccc(O)cc1)NC(=O)[C@H](CC(=O)O)NC(=O)[C@H](CO)NC(=O)[C@@H](NC(=O)[C@H](Cc1ccccc1)NC(=O)[C@@H](NC(=O)CNC(=O)[C@H](CCC(=O)O)NC(=O)C(C)(C)NC(=O)[C@H](N)Cc1ccc(O)cc1)[C@@H](C)O)[C@@H](C)O)[C@@H](C)CC)[C@@H](C)CC)C(=O)N[C@@H](C)C(=O)NCC(=O)NCC(=O)N1CCC[C@H]1C(=O)N[C@@H](CO)C(=O)N[C@@H](CO)C(=O)NCC(=O)N[C@@H](C)C(=O)N1CCC[C@H]1C(=O)N1CCC[C@H]1C(=O)N1CCC[C@H]1C(=O)N[C@@H](CO)C(N)=O) [Example 351]	0.47	0.298	0.22	0.149				
[dY][Aib]EGTFTSDYSI[αMeL]LD[Dab]K([AEEA-AEEA-γGlu-C20 diacid])AQ[Aib]EFIEYLIAGGPSSGAPPPS-NH2 (N-terminus assumed; SMILES CC[C@H](C)[C@H](NC(=O)[C@H](CC(C)C)NC(=O)[C@H](Cc1ccc(O)cc1)NC(=O)[C@H](CCC(=O)O)NC(=O)[C@@H](NC(=O)[C@H](Cc1ccccc1)NC(=O)[C@H](CCC(=O)O)NC(=O)C(C)(C)NC(=O)[C@H](CCC(N)=O)NC(=O)[C@H](C)NC(=O)[C@H](CCCCNC(=O)COCCOCCNC(=O)COCCOCCNC(=O)CC[C@H](NC(=O)CCCCCCCCCCCCCCCCCCC(=O)O)C(=O)O)NC(=O)[C@H](CCN)NC(=O)[C@H](CC(=O)O)NC(=O)[C@H](CC(C)C)NC(=O)[C@](C)(CC(C)C)NC(=O)[C@@H](NC(=O)[C@H](CO)NC(=O)[C@H](Cc1ccc(O)cc1)NC(=O)[C@H](CC(=O)O)NC(=O)[C@H](CO)NC(=O)[C@@H](NC(=O)[C@H](Cc1ccccc1)NC(=O)[C@@H](NC(=O)CNC(=O)[C@H](CCC(=O)O)NC(=O)C(C)(C)NC(=O)[C@H](N)Cc1ccc(O)cc1)[C@@H](C)O)[C@@H](C)O)[C@@H](C)CC)[C@@H](C)CC)C(=O)N[C@@H](C)C(=O)NCC(=O)NCC(=O)N1CCC[C@H]1C(=O)N[C@@H](CO)C(=O)N[C@@H](CO)C(=O)NCC(=O)N[C@@H](C)C(=O)N1CCC[C@H]1C(=O)N1CCC[C@H]1C(=O)N1CCC[C@H]1C(=O)N[C@@H](CO)C(N)=O) [Example 350]	0.741	0.189	0.307	0.107				
YXEGTXTSDYSIXLDXKAQXEFIXYLIEGGPSSGAPPPS (Aib2; αMeF(2F)6; αMeL13; Orn16; K17((2-[2-(2-Amino-ethoxy)-ethoxy]-acetyl)2-(γ-Glu)-CO-(CH2)18-CO2H); Aib20; D-Glu24; C-terminal NH2) [Example 3]								0.0411
